Assays:
[1] = biological target: T1, endogenous family with sequence similarity 134 member B (FAM134B), Q9H6L5; assay: co-immunoprecipitation (anti-FLAG IP, densitometry); conditions: chain shown with the change; MCF7 cells transfected for 48 h, crosslinking; n = 3; parent: est. 1.0; read off a plot
T1 chain: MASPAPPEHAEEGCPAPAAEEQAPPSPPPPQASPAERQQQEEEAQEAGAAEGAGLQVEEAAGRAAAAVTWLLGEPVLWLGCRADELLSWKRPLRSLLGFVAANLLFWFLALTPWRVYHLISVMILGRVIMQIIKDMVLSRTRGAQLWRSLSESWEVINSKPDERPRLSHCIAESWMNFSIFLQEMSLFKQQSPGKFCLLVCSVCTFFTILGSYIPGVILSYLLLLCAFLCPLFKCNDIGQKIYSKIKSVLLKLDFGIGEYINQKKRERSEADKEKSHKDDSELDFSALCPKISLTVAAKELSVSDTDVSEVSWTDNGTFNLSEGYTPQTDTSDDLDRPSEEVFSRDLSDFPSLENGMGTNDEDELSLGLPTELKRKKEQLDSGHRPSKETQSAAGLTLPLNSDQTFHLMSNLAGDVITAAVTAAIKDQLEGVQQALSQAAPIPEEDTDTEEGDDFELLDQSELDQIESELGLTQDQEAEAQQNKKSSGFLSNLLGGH

[2] = biological target: T2, endogenous long reticulon-3 (RTN3L), O95197; assay: as above; conditions: chain shown with the change; MCF7 cells transfected for 48 h, crosslinking; n = 3; parent: est. 1.0; read off a plot
T2 chain: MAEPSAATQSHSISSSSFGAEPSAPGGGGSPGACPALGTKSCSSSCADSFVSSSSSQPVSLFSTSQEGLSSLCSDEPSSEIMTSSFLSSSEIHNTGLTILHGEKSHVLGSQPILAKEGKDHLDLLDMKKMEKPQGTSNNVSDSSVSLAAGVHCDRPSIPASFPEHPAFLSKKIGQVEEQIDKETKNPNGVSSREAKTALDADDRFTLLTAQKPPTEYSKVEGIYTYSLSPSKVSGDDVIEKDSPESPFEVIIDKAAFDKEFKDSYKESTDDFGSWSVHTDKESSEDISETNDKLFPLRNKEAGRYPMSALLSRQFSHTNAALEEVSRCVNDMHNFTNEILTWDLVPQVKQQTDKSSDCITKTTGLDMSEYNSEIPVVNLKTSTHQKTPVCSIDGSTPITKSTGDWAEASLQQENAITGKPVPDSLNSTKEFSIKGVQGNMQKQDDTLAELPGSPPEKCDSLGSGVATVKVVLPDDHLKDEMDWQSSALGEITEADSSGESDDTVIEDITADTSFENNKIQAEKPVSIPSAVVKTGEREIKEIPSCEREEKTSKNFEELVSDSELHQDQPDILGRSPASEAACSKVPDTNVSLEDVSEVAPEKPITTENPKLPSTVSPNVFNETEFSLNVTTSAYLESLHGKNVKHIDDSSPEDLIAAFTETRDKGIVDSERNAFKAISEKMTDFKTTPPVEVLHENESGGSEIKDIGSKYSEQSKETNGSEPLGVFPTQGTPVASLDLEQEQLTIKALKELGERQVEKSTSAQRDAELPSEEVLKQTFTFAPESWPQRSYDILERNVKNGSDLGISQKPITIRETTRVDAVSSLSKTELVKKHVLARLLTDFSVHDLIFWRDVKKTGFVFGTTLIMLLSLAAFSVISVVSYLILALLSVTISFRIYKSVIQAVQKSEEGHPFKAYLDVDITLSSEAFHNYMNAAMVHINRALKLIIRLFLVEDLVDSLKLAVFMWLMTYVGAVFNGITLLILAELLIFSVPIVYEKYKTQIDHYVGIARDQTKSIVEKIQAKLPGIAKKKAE

Binder | ratio to parent [1] | ratio to parent [2]
FLAG-tagged wild-type Rab32, Q13637 T39N (protein) MAGGGAGDPGLGAAAAPAPETREHLFKVLVIGELGVGKNSIIKRYVHQLFSQHYRATIGVDFALKVLNWDSRTLVRLQLWDIAGQERFGNMTRVYYKEAVGAFVVFDISRSSTFEAVLKWKSDLDSKVHLPNGSPIPAVLLANKCDQNKDSSQSPSQVDQFCKEHGFAGWFETSAKDNINIEEAARFLVEKILVNHQSFPNEENDVDKIKLDQETLRAENKSQCC | 0.75 | 1.3
FLAG-tagged wild-type Rab32, Q13637 Q85L (protein) MAGGGAGDPGLGAAAAPAPETREHLFKVLVIGELGVGKTSIIKRYVHQLFSQHYRATIGVDFALKVLNWDSRTLVRLQLWDIAGLERFGNMTRVYYKEAVGAFVVFDISRSSTFEAVLKWKSDLDSKVHLPNGSPIPAVLLANKCDQNKDSSQSPSQVDQFCKEHGFAGWFETSAKDNINIEEAARFLVEKILVNHQSFPNEENDVDKIKLDQETLRAENKSQCC | 0.95 | 3.4
